From PMC3613824 (Cell Death & Disease, 2013)

Biological target: MBP-DLC2 (dynein light chain-2 fused to maltose-binding protein) (UniProt Q96FJ2 1-89)
Test: pull-down

B1: GST-MVaf1 (myosin-Va medial tail fragment 1, MYO5A 1276-1328 [+B], fused to glutathione-S-transferase) (domain or fragment)
chain: QKEAIQPKDDKNTMTDSTILLEDVQKMKDKGEIAQAYIGLKETNRSSALDYHE
Does B1 bind?
Result: binds
